Values belong to the binder of their own block, whether it stands above or below them.
Tests used:
[1] = target: T1, serotonin receptor 5-HT1B fused to a TEV cleavage site and tTA (human, UniProt P28222 1-390); experiment: Tango assay (TEV protease proximity reporter); HTL cells co-transfected with receptor-TEV cleavage site-tTA and GRK-TEV protease fusions; luciferase reporter; vehicle or ligand overnight (ATR 10 μM for rhodopsin; paroxetine; DHE 0.1 μM, GR 127935 1 μM; SX 1 μM, ICI 118 551 1 μM); DNA amounts adjusted for similar expression; conditions: partners not purified
T1 construct: human serotonin receptor 5-HT1B; also called HTR1b; source: HTL cells, transfected (pcDNA3), in cells; not shown: TEV cleavage site (ENLYFQS), C-terminal, kept

[2] = target: T2, β2-adrenergic receptor fused to a TEV cleavage site and tTA (human, UniProt P07550 1-413); experiment: as above; conditions: partners not purified
T2 construct: human β2-adrenergic receptor; also called β2AR; source: HTL cells, transfected (pcDNA3), in cells; not shown: TEV cleavage site (ENLYFQS), C-terminal, kept

[3] = target: T3, Arrestin-biotin-MBP (human wild-type visual arrestin), purified (human, UniProt P10523 1-405, biotin on the tag); experiment: AlphaScreen or HTRF; biotinylated WT arrestin and His8-tagged 4M Rho, with 80 nM purified GRK1 and 40 μM ATP added (indirect kinase assay); conditions: both partners purified
T3 construct: human visual arrestin (arrestin1); also called WT arrestin; arrestin1; source: Sf9 insect cells, purified on amylose beads; not shown: biotin tag, C-terminal, kept

- fold induction by the agonist dihydroergotamine over the vehicle control [1]: 2.5 fold
- fold induction by the agonist salmeterol xinafoate over the vehicle control [2]: 2 fold
B1: bovine GRK2 fused to the N-terminus of TEV protease (enzyme, UniProt P21146 1-689, looked up)
chain: MADLEAVLADVSYLMAMEKSKATPAARASKKILLPEPSIRSVMQKYLEDRGEVTFEKIFSQKLGYLLFRDFCLKHLEEAKPLVEFYEEIKKYEKLETEEERLVCSREIFDTYIMKELLACSHPFSKSAIEHVQGHLVKKQVPPDLFQPYIEEICQNLRGDVFQKFIESDKFTRFCQWKNVELNIHLTMNDFSVHRIIGRGGFGEVYGCRKADTGKMYAMKCLDKKRIKMKQGETLALNERIMLSLVSTGDCPFIVCMSYAFHTPDKLSFILDLMNGGDLHYHLSQHGVFSEADMRFYAAEIILGLEHMHNRFVVYRDLKPANILLDEHGHVRISDLGLACDFSKKKPHASVGTHGYMAPEVLQKGVAYDSSADWFSLGCMLFKLLRGHSPFRQHKTKDKHEIDRMTLTMAVELPDSFSPELRSLLEGLLQRDVNRRLGCLGRGAQEVKESPFFRSLDWQMVFLQKYPPPLIPPRGEVNAADAFDIGSFDEEDTKGIKLLDSDQELYRNFPLTISERWQQEVAETVFDTINAETDRLEARKKTKNKQLGHEEDYALGKDCIMHGYMSKMGNPFLTQWQRRYFYLFPNRLEWRGEGEAPQSLLTMEEIQSVEETQIKERKCLLLKIRGGKQFVLQCDSDPELVQWKKELRDAYREAQQLVQRVPKMKNKPRSPVVELSKVPLIQRGSANGL
notes: bovine GRK2; source: HTL cells, transfected (pcDNA3), in cells; not shown: HA or FLAG, C-terminal, kept; TEV protease, C-terminal, kept

- binding result [3]: binds
B2: H8-MBP-Rho (4M) phosphorylated by purified GRK1 with ATP (receptor, human, UniProt P08100 1-348, looked up)
chain: MCGTEGPNFYVPFSNATGVVRSPFEYPQYYLAEPWQFSMLAAYMFLLIVLGFPINFLTLYVTVQHKKLRTPLNYILLNLAVADLFMVLGGFTSTLYTSLHGYFVFGPTGCNLQGFFATLGGEIALWSLVVLAIERYVVVCKPMSNFRFGENHAIMGVAFTWVMALACAAPPLAGWSRYIPEGLQCSCGIDYYTLKPEVNNESFVIYMFVVHFTIPMIIIFFCYGQLVFTVKEAAAQQQESATTQKAEKEVTRMVIIYVIAFLICWVPYASVAFYIFTHQGSCFGPIFMTIPAFFAKSAAIYNPVIYIMMNKQFRNCMLTTICCGKNPLGDDEASATVSKTETSQVAPA
modifications: phosphorylated by GRK1; sites not stated
notes: human rhodopsin; also called GRK-phosphorylated Rho; source: HEK293S cells, purified on amylose beads; phosphorylated in the assay mixture by 80 nM purified GRK1 with 40 μM ATP; not shown: His8, N-terminal, kept

— publication PMC5518878, “Molecular assembly of rhodopsin with G protein-coupled receptor kinases” (Cell Research, 2017)
